In the supplement of paper PMC10567573 one finds protein stability index data, which are given here for 94 variants.

B1: FBXO34 (parent)
chain: PRYREDPCKQCKKKYVKGDVSLCR
B2: KRT13 (parent)
chain: TPGIDLTRVLAEMREQYEAMAERN
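Note: lentivirally expressed fusions sorted by FACS into six bins by GFP to DsRed ratio, PSI derived from sequencing read proportions per bin multiplied by bin number.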

The first series covers variants of B1. Kind of series: protein stability index of a GFP-peptide fusion (GPS, HEK-293T) (PSI 1-6); higher = more stable. The note with it: c terminus: a fixed tail appended.
Regarding PRYREDPCKQCKKKYVKGDVSLNR [C23N], the protein stability index was 2.53.

PRYREDPCKQCKKKYVKGDVSLSR [C23S]: the protein stability index is 2.58.

For PRYREDPCKQCKKKYVKGDVSLAR [C23A], the protein stability index was 2.95.

For the variant PRYREDPCKQCKKKYVKGDVSLIR [C23I], the protein stability index amounted to 2.59.

On to PRYREDPCKQCKKKYVKGDVSLDR [C23D], for which the protein stability index is 3.3.

As to PRYREDPCKQCKKKYVKGDVSLER [C23E], the protein stability index is 2.71.

In the case of PRYREDPCKQCKKKYVKGDVSLMR [C23M], the protein stability index came to 2.95.

With PRYREDPCKQCKKKYVKGDVSLGR [C23G], the protein stability index amounted to 2.88.

For PRYREDPCKQCKKKYVKGDVSLHR [C23H], the protein stability index was 3.1.

For PRYREDPCKQCKKKYVKGDVSLTR [C23T], the protein stability index was found to be 3.12.

With PRYREDPCKQCKKKYVKGDVSLFR [C23F], the protein stability index is 2.27.

Regarding PRYREDPCKQCKKKYVKGDVSLYR [C23Y], the protein stability index was determined as 2.11.

On to PRYREDPCKQCKKKYVKGDVSLQR [C23Q], for which the protein stability index was 1.9.

On to PRYREDPCKQCKKKYVKGDVSLWR [C23W], for which the protein stability index worked out at 1.85.

With PRYREDPCKQCKKKYVKGDVSLKR [C23K], the protein stability index is 3.29.

For the variant PRYREDPCKQCKKKYVKGDVSLLR [C23L], the protein stability index was 3.1.

In the case of PRYREDPCKQCKKKYVKGDVSLPR [C23P], the protein stability index amounted to 2.52.

For PRYREDPCKQCKKKYVKGDVSLVR [C23V], the protein stability index came to 3.18.

With PRYREDPCKQCKKKYVKGDVSLRR [C23R], the protein stability index turned out to be 2.86.

In the case of PRYREDPCKQCKKKYVKGDVSVCR [L22V], the protein stability index came to 3.23.

As to PRYREDPCKQCKKKYVKGDVSRCR [L22R], the protein stability index came to 3.31.

For the variant PRYREDPCKQCKKKYVKGDVSKCR [L22K], the protein stability index was 3.6.

Regarding PRYREDPCKQCKKKYVKGDVSMCR [L22M], the protein stability index was found to be 2.6.

Take PRYREDPCKQCKKKYVKGDVSGCR [L22G]: the protein stability index amounted to 3.18.

Regarding PRYREDPCKQCKKKYVKGDVSCCR [L22C], the protein stability index was found to be 3.15.

For the variant PRYREDPCKQCKKKYVKGDVSHCR [L22H], the protein stability index amounted to 2.88.

As to PRYREDPCKQCKKKYVKGDVSNCR [L22N], the protein stability index was found to be 3.01.

For PRYREDPCKQCKKKYVKGDVSACR [L22A], the protein stability index came out at 3.12.

Take PRYREDPCKQCKKKYVKGDVSTCR [L22T]: the protein stability index was determined as 2.93.

Take PRYREDPCKQCKKKYVKGDVSYCR [L22Y]: the protein stability index was found to be 2.54.

Regarding PRYREDPCKQCKKKYVKGDVSDCR [L22D], the protein stability index was 3.01.

With PRYREDPCKQCKKKYVKGDVSPCR [L22P], the protein stability index amounted to 2.41.

Take PRYREDPCKQCKKKYVKGDVSFCR [L22F]: the protein stability index came out at 2.58.

PRYREDPCKQCKKKYVKGDVSSCR [L22S]: the protein stability index amounted to 3.29.

PRYREDPCKQCKKKYVKGDVSICR [L22I]: the protein stability index stood at 3.12.

Take PRYREDPCKQCKKKYVKGDVSECR [L22E]: the protein stability index is 3.48.

Consider PRYREDPCKQCKKKYVKGDVSQCR [L22Q], for which the protein stability index stood at 2.32.

For the variant PRYREDPCKQCKKKYVKGDVSWCR [L22W], the protein stability index was 2.08.

As for PRYREDPCKQCKKKYVKGDVPLCR [S21P], the protein stability index came out at 2.53.

On to PRYREDPCKQCKKKYVKGDVTLCR [S21T], for which the protein stability index was 2.66.

PRYREDPCKQCKKKYVKGDVQLCR [S21Q]: the protein stability index was 3.14.

As for PRYREDPCKQCKKKYVKGDVYLCR [S21Y], the protein stability index was found to be 2.18.

On to PRYREDPCKQCKKKYVKGDVRLCR [S21R], for which the protein stability index amounted to 2.97.

For PRYREDPCKQCKKKYVKGDVVLCR [S21V], the protein stability index was determined as 3.13.

Consider PRYREDPCKQCKKKYVKGDVWLCR [S21W], for which the protein stability index came out at 2.16.

PRYREDPCKQCKKKYVKGDVSLCH [R24H]: the protein stability index was 3.42.

Consider PRYREDPCKQCKKKYVKGDVSLCC [R24C], for which the protein stability index came to 3.58.

In the case of PRYREDPCKQCKKKYVKGDVSLCS [R24S], the protein stability index was 3.39.

In the case of PRYREDPCKQCKKKYVKGDVSLCI [R24I], the protein stability index was 2.46.

As to PRYREDPCKQCKKKYVKGDVSLCM [R24M], the protein stability index amounted to 3.09.

Regarding PRYREDPCKQCKKKYVKGDVSLCN [R24N], the protein stability index was 3.46.

In the case of PRYREDPCKQCKKKYVKGDVSLCY [R24Y], the protein stability index was determined as 2.87.

As to PRYREDPCKQCKKKYVKGDVSLCV [R24V], the protein stability index is 3.34.

Regarding PRYREDPCKQCKKKYVKGDVSLCF [R24F], the protein stability index was found to be 2.51.

With PRYREDPCKQCKKKYVKGDVSLCL [R24L], the protein stability index is 2.52.

For PRYREDPCKQCKKKYVKGDVSLCD [R24D], the protein stability index was 3.82.

Regarding PRYREDPCKQCKKKYVKGDVSLCP [R24P], the protein stability index was 4.39.

On to PRYREDPCKQCKKKYVKGDVSLCQ [R24Q], for which the protein stability index worked out at 3.91.

Turning to PRYREDPCKQCKKKYVKGDVSLCT [R24T], the protein stability index was 3.05.

PRYREDPCKQCKKKYVKGDVSLCG [R24G]: the protein stability index was determined as 3.11.

With PRYREDPCKQCKKKYVKGDVSLCE [R24E], the protein stability index is 4.08.

With PRYREDPCKQCKKKYVKGDVSLCW [R24W], the protein stability index is 2.27.

Consider PRYREDPCKQCKKKYVKGDVSLCA [R24A], for which the protein stability index is 2.9.

PRYREDPCKQCKKKYVKGDVSLCK [R24K]: the protein stability index was 4.33.

In a further series the parent is B2. Described as above. The conditions noted are these: c terminus: a fixed tail appended.
On to TPAIDLTRVLAEMREQYEAMAERN [G3A], for which the protein stability index turned out to be 3.35.

Consider TPHIDLTRVLAEMREQYEAMAERN [G3H], for which the protein stability index was found to be 3.35.

Take TPVIDLTRVLAEMREQYEAMAERN [G3V]: the protein stability index worked out at 2.11.

For the variant TPFIDLTRVLAEMREQYEAMAERN [G3F], the protein stability index turned out to be 2.28.

With TPQIDLTRVLAEMREQYEAMAERN [G3Q], the protein stability index came out at 3.23.

In the case of TPIIDLTRVLAEMREQYEAMAERN [G3I], the protein stability index was 3.38.

Regarding TPTIDLTRVLAEMREQYEAMAERN [G3T], the protein stability index was 2.96.

Consider TPKIDLTRVLAEMREQYEAMAERN [G3K], for which the protein stability index amounted to 1.99.

Regarding TPRIDLTRVLAEMREQYEAMAERN [G3R], the protein stability index worked out at 3.39.

With TPPIDLTRVLAEMREQYEAMAERN [G3P], the protein stability index was found to be 2.67.

As to TPYIDLTRVLAEMREQYEAMAERN [G3Y], the protein stability index is 2.34.

As to TPCIDLTRVLAEMREQYEAMAERN [G3C], the protein stability index turned out to be 2.63.

As to TPLIDLTRVLAEMREQYEAMAERN [G3L], the protein stability index is 2.81.

As to TPMIDLTRVLAEMREQYEAMAERN [G3M], the protein stability index is 2.38.

Turning to TPWIDLTRVLAEMREQYEAMAERN [G3W], the protein stability index was 3.37.

Consider TPDIDLTRVLAEMREQYEAMAERN [G3D], for which the protein stability index turned out to be 3.1.

As for TPNIDLTRVLAEMREQYEAMAERN [G3N], the protein stability index was 3.12.

On to TPEIDLTRVLAEMREQYEAMAERN [G3E], for which the protein stability index was determined as 2.78.

For the variant TPGIDLHRVLAEMREQYEAMAERN [T7H], the protein stability index is 3.81.

With TPGIDLSRVLAEMREQYEAMAERN [T7S], the protein stability index is 3.07.

Consider TPGIDLPRVLAEMREQYEAMAERN [T7P], for which the protein stability index came to 4.16.

For TPGIDLGRVLAEMREQYEAMAERN [T7G], the protein stability index came to 3.36.

For the variant TPGIDLIRVLAEMREQYEAMAERN [T7I], the protein stability index worked out at 2.26.

Regarding TPGIDLVRVLAEMREQYEAMAERN [T7V], the protein stability index was 2.81.

Consider TPGIDLRRVLAEMREQYEAMAERN [T7R], for which the protein stability index was determined as 2.8.

As to TPGIDLDRVLAEMREQYEAMAERN [T7D], the protein stability index was 4.45.

TPGIDLFRVLAEMREQYEAMAERN [T7F]: the protein stability index came to 2.24.

In the case of TPGIDLARVLAEMREQYEAMAERN [T7A], the protein stability index was found to be 3.77.

As to TPGIDLLRVLAEMREQYEAMAERN [T7L], the protein stability index came to 2.17.

On to TPGIDLERVLAEMREQYEAMAERN [T7E], for which the protein stability index was determined as 4.25.
